Source: article PMC12594183 (2026)
Substitutions are numbered along the chain they refer to.

T1: SIRT1 NTD(3HB) (Homo sapiens, UniProt Q96EB6)
T1 chain: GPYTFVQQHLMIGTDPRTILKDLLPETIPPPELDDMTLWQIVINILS

T2: SIRT1 CD (Homo sapiens, UniProt Q96EB6)
T2 chain: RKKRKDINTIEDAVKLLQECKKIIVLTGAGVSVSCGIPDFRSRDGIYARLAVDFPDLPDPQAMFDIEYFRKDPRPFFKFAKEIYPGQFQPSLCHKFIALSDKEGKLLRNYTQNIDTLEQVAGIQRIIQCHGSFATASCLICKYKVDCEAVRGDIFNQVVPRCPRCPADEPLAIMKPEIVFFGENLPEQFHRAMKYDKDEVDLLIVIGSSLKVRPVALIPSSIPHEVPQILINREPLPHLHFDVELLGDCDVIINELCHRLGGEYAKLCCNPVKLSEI

T3: SIRT1 NTD(3HB)-CD (Homo sapiens, UniProt Q96EB6)
T3 chain: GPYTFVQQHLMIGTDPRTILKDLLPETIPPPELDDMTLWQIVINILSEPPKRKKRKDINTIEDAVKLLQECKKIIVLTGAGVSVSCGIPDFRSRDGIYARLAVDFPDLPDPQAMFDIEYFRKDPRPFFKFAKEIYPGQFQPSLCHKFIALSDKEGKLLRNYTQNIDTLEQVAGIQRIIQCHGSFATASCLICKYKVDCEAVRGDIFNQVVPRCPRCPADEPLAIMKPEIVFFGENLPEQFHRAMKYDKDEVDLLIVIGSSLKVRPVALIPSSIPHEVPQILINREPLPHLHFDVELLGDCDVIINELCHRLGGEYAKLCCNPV

B1: PPARγ LBD (protein)
chain: PESADLRALAKHLYDSYIKSFPLTKAKARAILTGKTTDKSPFVIYDMNSLMMGEDKIKFKHITPLQEQSKEVAIRIFQGCQFRSVEAVQEITEYAKSIPGFVNLDLNDQVTLLKYGVHEIIYTMLASLMNKDGVLISEGQGFMTREFLKSLRKPFGDFMEPKFEFAVKFNALELDDSDLAIFIAVIILSGDRPGLLNVKPIEDIQDNLLQALELQLKLNHPESSQLFAKLLQKMTDLRQIVTEHVQLLQVIKKTETDMSLHPLLQEIYKDLY
B2: PPARγ LBD (protein)
chain: B1 chain with K60Q
B3: PPARγ LBD (protein)
chain: B1 chain with L32R
B4: PPARγ LBD (protein)
chain: B1 chain with Q66D
B5: PPARγ LBD (protein)
chain: B1 chain with K35Q
B6: PPARγ LBD (protein)
chain: B1 chain with V43R
B7: PPARγ DBD-LBD (protein)
chain: AIECRVCGDKASGFHYGVHACEGCKGFFRRTIRLKLIYDRCDLNCRIHKKSRNKCQYCRFQKCLAVGMSHNAIRFGRMPQAEKEKLLAEISSDIDQLNPESADLRALAKHLYDSYIKSFPLTKAKARAILTGKTTDKSPFVIYDMNSLMMGEDKIKFKHITPLQEQSKEVAIRIFQGCQFRSVEAVQEITEYAKSIPGFVNLDLNDQVTLLKYGVHEIIYTMLASLMNKDGVLISEGQGFMTREFLKSLRKPFGDFMEPKFEFAVKFNALELDDSDLAIFIAVIILSGDRPGLLNVKPIEDIQDNLLQALELQLKLNHPESSQLFAKLLQKMTDLRQIVTEHVQLLQVIKKTETDMSLHPLLQEIYKDLY
modifications: Rosiglitazone
B8: PPARγ DBD-LBD (protein)
chain: B7 chain
modifications: NAD+
B9: PPARγ DBD-LBD (protein)
chain: B7 chain

Biological target: T1, SIRT1 NTD(3HB)
Assay: FP

**Q.** How did the Kd turn out when B1 was run?
**A.** 6550 nM

Biological target: T2, SIRT1 CD
Assay: FP

**Q.** With B1 as the binder, how does the Kd read?
**A.** 1620 nM

Biological target: T3, SIRT1 NTD(3HB)-CD
Assay: FP

**Q.** B1 was tested. Which Kd did it give?
**A.** 240 nM

**Q.** For B2, which Kd is on record?
**A.** 210 nM

**Q.** B3 was tested. Which Kd did it give?
**A.** 170 nM

**Q.** How did the Kd turn out when B4 was run?
**A.** 111000 nM

**Q.** With B5 as the binder, how does the Kd read?
**A.** 560 nM

**Q.** With B6 as the binder, how does the Kd read?
**A.** 810 nM

**Q.** How did the Kd turn out when B7 was run?
**A.** 690 nM

**Q.** With B8 as the binder, how does the Kd read?
**A.** 1670 nM

**Q.** For B9, which Kd is on record?
**A.** 1900 nM
